Measured values: PMC7547722, “A versatile soluble siglec scaffold for sensitive and quantitative detection of glycan ligands” (Nature Communications, 2020)
“And” between values parts separate entries of the source, which are not always exact repeats. Equal entries are not always repeated.

System: peripheral blood immune cells
Assay: Comparison of 2-step and pre-complexed Siglec-Fc binding, flow cytometry (Figure 3e-g)
Type: cell-based, human
Conditions: Figure 3g

B1: Siglec-9-Fc R120A (protein, UniProt Q9Y336 18-348, looked up, variant R120A)
extracellular domain: QTSKLLTMQSSVTVQEGLCVHVPCSFSYPSHGWIYPGPVVHGYWFREGANTDQDAPVATNNPARAVWEETRDRFHLLGDPHTKNCTLSIRDARRSDAGRYFFAMEKGSIKWNYKHHRLSVNVTALTHRPNILIPGTLESGCPQNLTCSVPWACEQGTPPMISWIGTSVSPLDPSTTRSSVLTLIPQPQDHGTSLTCQVTFPGASVTTNKTVHLNVSYPPQNLTMTVFQGDGTVSTVLGNGSSLSLPEGQSLRLVCAVDAVDSNPPARLSLSWRGLTLCPSQPSNPGVLELPWVHLRDAAEFTCRAQNPLGSQQVYLNVSLQSKATSGVTQG
modifications: extracellular domain fused to human IgG1 Fc
- Siglec-9-Fc Binding (2-Step): 43.3 and 45.1 and 40.9
- Siglec-9-Fc Binding (Precomplex): 42 and 53.2 and 47.5
